{
  "source": "patent US6451759",
  "about": "(University of California, dated 2002)",
  "molecular_target": "T1, Fas on Jurkat T cells (human, UniProt P25445 26-335)",
  "T1 sequence (looked up)": "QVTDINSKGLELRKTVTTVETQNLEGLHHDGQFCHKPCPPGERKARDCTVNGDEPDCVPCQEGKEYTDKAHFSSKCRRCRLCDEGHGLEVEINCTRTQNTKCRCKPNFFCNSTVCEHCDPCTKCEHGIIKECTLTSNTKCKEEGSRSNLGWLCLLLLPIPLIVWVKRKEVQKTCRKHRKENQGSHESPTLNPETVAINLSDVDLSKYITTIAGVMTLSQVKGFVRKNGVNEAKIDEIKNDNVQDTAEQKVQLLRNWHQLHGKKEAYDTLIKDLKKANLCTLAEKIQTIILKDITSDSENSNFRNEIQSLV",
  "assay": "cell-based or functional assay",
  "data": [
    {"binder": "SQMHTASSLEKQIGHPSPPPEKKELRKVAHLTGKSN (ligand)", "note": "[deletion mutant 2 of human FasL]", "values": [
      {"measurement": "percent specific 51Cr release from Jurkat target cells (cytotoxicity assay, transfected COS-7 effector cells)", "value": "~2", "unit": "fold over wild-type FasL"}
    ]}
  ]
}
